The target in the data set is SARS-CoV-2 spike receptor-binding domain (SARS-CoV-2-RBD, ~35 kDa) (SARS-CoV-2, UniProt P0DTC2 319-541). Kind of data set: electrochemical impedance spectroscopy (Langmuir isotherm).

This is an account of results in PMC8945915, “An Electrochemical Impedance Spectroscopy-Based Aptasensor for the Determination of SARS-CoV-2-RBD Using a Carbon Nanofiber–Gold Nanocomposite Modified Screen-Printed Electrode”.

B1: thiol-terminal SARS-CoV-2-RBD aptamer (ssDNA)
DNA: CAGCACCGACCTTGTGCTTTGGGAGTGCTGGTCCAAGGGCGTTAATGGACA
modifications: 5' SH-(CH2)6 thiol
As a reminder, the Kd is a measure of binding affinity in units of concentration. Lower therefore signals tighter binding. B1 yielded a Kd of 0.42 nM.
